Changes are numbered by the printed parent chain. Names and notes keep the numbering of the source.
B1: IreB Y79E (purified recombinant) (natural protein, Enterococcus faecalis)
chain: MGFTDETVRFDFDDNRKKAISETLETVYRALEEKGYNPINQIVGYLLSGDPAYIPRYQDARNLIRRHERDEIMEELTKEYLANHGIDIK
B2: IreB (purified recombinant wild-type) (natural protein)
chain: B1 chain with E79Y
B3: IreB L81W (purified recombinant) (natural protein, Enterococcus faecalis)
chain: B1 chain with E79Y, L81W

Columns and labels:
[1] = target: the molecule itself; assay: SEC
[2] = target: the molecule itself; assay: AUC

Protein | stoichiometry N [1] | stoichiometry N [2]
B1 | 2 | 
B2 | 2 | 2.05
B3 | 2 | 

Source: paper PMC5527686 (Journal of molecular biology, 2017)
